According to the supplement of paper PMC9876800:

Test system: peptide library, one residue held at a place counted from the S/T acceptor
Assay: relative phosphorylation of the sub-library (ratio to the mean residue at this position); higher = residue favoured
Summary of the method: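 Purified recombinant kinases were reacted in 384-well plates with biotinylated degenerate peptide sub-libraries, each having one residue fixed at one position around a central Ser/Thr. The reaction mix contained 50 μM peptide plus 50 μM ATP spiked with γ-32P-ATP and ran for 90 min under kinase-specific conditions. Relative sub-library phosphorylation, taken from densitometry of phosphorimaged streptavidin membrane spots, is a ratio to the mean residue at that position.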

MAP3K14, construct: aa327-673, human, sequence (Q99558 327-673, looked up): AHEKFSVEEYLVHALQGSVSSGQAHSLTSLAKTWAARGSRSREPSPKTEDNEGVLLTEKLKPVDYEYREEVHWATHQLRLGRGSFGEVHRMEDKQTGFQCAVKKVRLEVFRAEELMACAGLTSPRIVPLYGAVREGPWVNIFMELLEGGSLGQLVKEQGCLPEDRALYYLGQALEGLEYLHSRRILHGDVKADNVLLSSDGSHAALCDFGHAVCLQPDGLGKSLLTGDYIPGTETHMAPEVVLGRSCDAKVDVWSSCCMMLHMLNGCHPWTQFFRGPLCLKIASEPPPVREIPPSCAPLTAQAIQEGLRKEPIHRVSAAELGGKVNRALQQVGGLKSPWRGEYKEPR

MAP3K14, construct: aa327-673, human (from UniProt Q99558)
relative phosphorylation
Details	at +1	at +2	at +3	at +4	at -1	at -2	at -3	at -4	at -5
A fixed	0.858	0.835	0.87	0.88	0.975	1.06	0.893	1	0.972
D fixed	0.726	0.707	0.858	0.865	0.8	0.709	0.687	0.783	0.764
E fixed	0.775	0.682	0.769	0.786	0.755	0.73	0.705	0.877	0.735
F fixed	1.21	0.85	0.978	0.96	0.787	0.923	0.751	0.89	1.04
G fixed	0.867	0.83	0.956	1.04	1.09	1.01	0.925	1.02	0.917
H fixed	0.973	1.15	1.11	1.04	1.16	1.08	1.08	1.06	1.05
I fixed	1	0.886	0.795	0.924	0.66	0.713	0.64	0.804	0.879
K fixed	1.08	1.68	1.36	1.36	1.49	1.19	1.92	1.53	1.38
L fixed	1.09	0.908	0.971	1.02	0.874	0.78	0.731	0.896	1.23
M fixed	1.26	0.844	0.875	0.962	0.966	1.02	0.753	0.977	1.04
N fixed	0.909	0.978	1.18	1.09	1.19	0.954	0.904	1.02	0.911
P fixed	0.69	0.817	0.935	1.25	1.02	0.763	0.843	0.924	1.05
Q fixed	1.09	0.918	0.979	1.06	1.04	1.18	0.97	1.03	0.921
R fixed	1.2	2.11	1.49	1.23	1.63	1.94	2.81	1.49	1.43
V fixed	0.988	0.892	0.81	0.866	0.687	0.76	0.652	0.843	0.808
W fixed	1.21	0.909	1.09	0.827	0.814	1.12	0.939	0.938	0.945
Y fixed	1.06	0.998	0.983	0.841	1.07	1.07	0.793	0.931	0.921
pThr fixed	0.918	0.837	0.843	0.923	0.678	0.769	0.827	0.899	0.877
pTyr fixed	0.869	0.849	0.889	0.774	0.829	0.824	1.01	0.941	0.985
